Values of other authors, collected in paper PMC6160412.
pKd: −log10 of the molar value. Like-named read-outs stand apart in the source and are kept apart here.

Molecular target: Neurexin-1β (+S4) (Mus musculus) (UniProt P0DI97)
Experiment: SPR

Neurexin-1β (+S4) (Mus musculus), sequence (P0DI97 47-392): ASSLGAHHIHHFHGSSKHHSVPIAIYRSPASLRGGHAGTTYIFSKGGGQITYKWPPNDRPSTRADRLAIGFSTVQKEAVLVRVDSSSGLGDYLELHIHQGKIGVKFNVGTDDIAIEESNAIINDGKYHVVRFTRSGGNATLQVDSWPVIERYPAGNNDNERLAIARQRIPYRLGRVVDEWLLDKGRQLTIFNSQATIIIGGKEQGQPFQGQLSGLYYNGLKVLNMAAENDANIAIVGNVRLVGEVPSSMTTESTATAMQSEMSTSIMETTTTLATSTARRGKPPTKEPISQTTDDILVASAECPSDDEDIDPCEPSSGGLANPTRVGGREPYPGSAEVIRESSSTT
Neuroligin-1, sequence (Q99K10 46-843): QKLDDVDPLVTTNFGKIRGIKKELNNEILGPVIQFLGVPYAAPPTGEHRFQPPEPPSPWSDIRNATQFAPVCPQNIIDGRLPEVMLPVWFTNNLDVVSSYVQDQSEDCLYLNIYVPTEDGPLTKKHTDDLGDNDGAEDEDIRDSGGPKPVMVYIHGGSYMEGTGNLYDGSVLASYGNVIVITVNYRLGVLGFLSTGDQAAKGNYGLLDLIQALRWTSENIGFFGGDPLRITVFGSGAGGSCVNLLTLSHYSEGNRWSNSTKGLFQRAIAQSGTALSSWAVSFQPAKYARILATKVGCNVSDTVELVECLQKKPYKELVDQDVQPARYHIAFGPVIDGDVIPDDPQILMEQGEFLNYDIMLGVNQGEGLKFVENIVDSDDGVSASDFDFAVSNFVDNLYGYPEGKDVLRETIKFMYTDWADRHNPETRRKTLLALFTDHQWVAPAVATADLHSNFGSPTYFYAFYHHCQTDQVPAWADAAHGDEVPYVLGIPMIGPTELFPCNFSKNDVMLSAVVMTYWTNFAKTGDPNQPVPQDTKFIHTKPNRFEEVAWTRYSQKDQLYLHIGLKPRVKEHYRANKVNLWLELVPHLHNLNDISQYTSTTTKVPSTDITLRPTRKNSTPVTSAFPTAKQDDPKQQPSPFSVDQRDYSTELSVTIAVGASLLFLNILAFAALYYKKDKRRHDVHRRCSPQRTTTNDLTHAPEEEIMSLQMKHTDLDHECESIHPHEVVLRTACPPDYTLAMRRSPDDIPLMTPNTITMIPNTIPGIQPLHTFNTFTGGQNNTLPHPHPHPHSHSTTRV

Row | Substance | pKd | pKd (record 2)
1 | Neuroligin-4 (from UniProt Q8N0W4) | 5.60 | 5.01
2 | Neuroligin-1 (from UniProt Q99K10) | 6.15 | 5.59
